{
  "source": "paper PMC7676268",
  "target": "SARS-CoV-2 glycoprotein S (SARS-CoV-2) (UniProt P0DTC2)",
  "assay": "cryo-EM structure; in situ cryo-electron tomography on cryo-FIB milled lamellae of chemically fixed infected cells; subtomogram average of 219 S trimers from six tomograms of intracellular virions; C3 symmetry applied after it was revealed without being imposed",
  "data": [
    {"substance": "SARS-CoV-2 glycoprotein S (from UniProt P0DTC2 14-1273) (natural protein)", "values": [
      {"measurement": "stoichiometry N", "result": 3}
    ]}
  ]
}
